Measurements reported in patent US20260217847A1 (NANJING REGENECORE BIOTECH, published 2026).

Tests used:
Test in all cases: peptide ELISA on streptavidin plate, 2 µg/mL 2H7-hFc, anti-hFc HRP
TfR1 peptide D1-helix3 = target: T1, TfR1 peptide D1-helix3 (human)
T1 construct: Synthetic peptide, captured on a streptavidin-coated plate; also called peptide No. 16
T1 peptide: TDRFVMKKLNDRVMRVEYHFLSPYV
Procedure: (§1) The peptide-antibody binding was identified using a standard enzyme-linked immunosorbent assay (ELISA). The steps were as follows: [0244] (1) The wells of an ELISA plate were coated with 100 μL of 2 μg/mL SA (streptavidin) protein at 4° C. overnight. […] (2) The wells of the ELISA plate were washed with PBST buffer. After adding 200 μL of 2% BSA, the plate was blocked at 37° C. for 1 h. […] (3) The peptide protein was diluted to 2 μg/mL, and a negative control and a positive control (AVI-tagged TfR1 protein) were included. Each experiment contained duplicate controls. […] (4) The wells of the ELISA plate were washed multiple times with PBST buffer. Then, 100 μL of the diluted peptide protein solution from step (3) was added into wells in duplicate, and along with the negative control wells, incubated at 37° C. for 1 h. [0248] (5) The wells of the ELISA plate were washed multiple times with PBST buffer. […] [0249] (6) The wells of the ELISA plate were washed multiple times with PBST buffer. Then, 100 μL of 2× anti-hFc HRP secondary antibody was added, and the plate was incubated at 37° C. for 1 h. [0250] (7) The wells of the ELISA plate were washed multiple times with PBST buffer. After adding 100 μL of TMB chromogenic solution, the reaction was carried out in the dark at room temperature for 30 min. [0251] (8) 100 μL of stop solution (1 mol/L HCl) was added to terminate the reaction. OD450 was measured using a microplate reader, and the readings were recorded.

[1] = target: T2, TfR1 peptide D1-helix3-helix4 (human)
T2 construct: Synthetic peptide, captured on a streptavidin-coated plate; also called peptide No. 19
T2 peptide: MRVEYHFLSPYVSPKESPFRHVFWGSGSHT
Procedure: as §1

TfR1 peptide D3-helix2 = target: T3, TfR1 peptide D3-helix2 (human)
T3 construct: Synthetic peptide, captured on a streptavidin-coated plate; also called peptide No. 6
T3 peptide: FTSTIKLLNENSYV
Procedure: as §1

TfR1 peptide D1-helix1 = target: T4, TfR1 peptide D1-helix1 (human)
T4 construct: Synthetic peptide, captured on a streptavidin-coated plate; also called peptide No. 1
T4 peptide: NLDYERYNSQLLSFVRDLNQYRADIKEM
Procedure: as §1

TfR1 peptide D2-loop1-K = target: T5, TfR1 peptide D2-loop1-K (human)
T5 construct: Synthetic peptide, captured on a streptavidin-coated plate; also called peptide No. 13
T5 peptide: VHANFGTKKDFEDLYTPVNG
Procedure: as §1

[2] = target: T6, TfR1 peptide D1-helix1-helix2 (human)
T6 construct: Synthetic peptide, captured on a streptavidin-coated plate; also called peptide No. 18
T6 peptide: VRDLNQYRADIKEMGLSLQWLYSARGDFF
Procedure: as §1

[3] = target: T7, TfR1 peptide D3-helix3-loop1 (human)
T7 construct: Synthetic peptide, captured on a streptavidin-coated plate; also called peptide No. 10
T7 peptide: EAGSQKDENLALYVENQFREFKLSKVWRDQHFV
Procedure: as §1

TfR1 peptide D1-helix5 = target: T8, TfR1 peptide D1-helix5 (human)
T8 construct: Synthetic peptide, captured on a streptavidin-coated plate; also called peptide No. 17
T8 peptide: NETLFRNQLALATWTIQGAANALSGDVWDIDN
Procedure: as §1

TfR1 peptide D1-helix4 = target: T9, TfR1 peptide D1-helix4 (human)
T9 construct: Synthetic peptide, captured on a streptavidin-coated plate; also called peptide No. 3
T9 peptide: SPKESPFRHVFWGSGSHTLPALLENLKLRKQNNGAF
Procedure: as §1

TfR1 peptide D3-helix1 = target: T10, TfR1 peptide D3-helix1 (human)
T10 construct: Synthetic peptide, captured on a streptavidin-coated plate; also called peptide No. 5
T10 peptide: RLYWDDLKRKLSEKLDSTD
Procedure: as §1

TfR1 peptide D3-loop1 = target: T11, TfR1 peptide D3-loop1 (human)
T11 construct: Synthetic peptide, captured on a streptavidin-coated plate; also called peptide No. 11
T11 peptide: LSKVWRDQHFV
Procedure: as §1

TfR1 peptide D2-loop1 = target: T12, TfR1 peptide D2-loop1 (human)
T12 construct: Synthetic peptide, captured on a streptavidin-coated plate; also called peptide No. 12
T12 peptide: GTKKDFEDLY
Procedure: as §1

TfR1 peptide D3-helix3 = target: T13, TfR1 peptide D3-helix3 (human)
T13 construct: Synthetic peptide, captured on a streptavidin-coated plate; also called peptide No. 7
T13 peptide: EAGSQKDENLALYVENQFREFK
Procedure: as §1

TfR1 peptide D2-loop3-K = target: T14, TfR1 peptide D2-loop3-K (human)
T14 construct: Synthetic peptide, captured on a streptavidin-coated plate; also called peptide No. 14
T14 peptide: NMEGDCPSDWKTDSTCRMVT
Procedure: as §1

B1: anti-humanized TfR1 single-domain antibody-Fc fusion antibody 2H7-hFC1 (Fc fusion)
chain (part 1 of 2): ESGGGLVQPGESLRLSCVASGSIWSIYTMGWYRQAPGKQRDFVASITGDSTRTLESVKDRFIISRDNTKNTLYLQMNSLKPEDTAVYYCQAITSLGEYWGQGTQVTVSS
notes: Expressed in 293F cells, Protein A purified; labelled with pHrodo iFL Green in the internalization assays; also called VHH-hFc; not shown: human IgG1 Fc: hinge, CH2 and CH3 regions, from vector RJK-V4-hFC1; limits and junction (multiple cloning site) not stat
With B1 the OD450 (TfR1 peptide D1-helix3) was 0.974, the P/N (TfR1 peptide D1-helix3) was 5 and the OD450 [1] was 0.508. The P/N [1] was 4.7, the OD450 (TfR1 peptide D3-helix2) was 0.17 and the OD450 (TfR1 peptide D1-helix1) was 0.21. The OD450 (TfR1 peptide D2-loop1-K) was 0.195, the OD450 [2] was 0.977 and the P/N [2] was 3.5. For the same binder, the OD450 [3] was 0.229, the OD450 (TfR1 peptide D1-helix5) was 0.206 and the OD450 (TfR1 peptide D1-helix4) was 1.49. It also gave a P/N (TfR1 peptide D1-helix4) of 9.5, an OD450 (TfR1 peptide D3-helix1) of 0.147 and an OD450 (TfR1 peptide D3-loop1) of 0.17. The OD450 (TfR1 peptide D2-loop1) was 0.176, the OD450 (TfR1 peptide D3-helix3) was 0.155 and the OD450 (TfR1 peptide D2-loop3-K) was 0.217.
